Laboratory results published in patent publication US9701748B2, “Humanized anti-CD22 antibody” (IMMUNOMEDICS, INC., priority 2014, dated 2017).
“Also recorded” adds a separate entry of the source. Like-named read-outs stand apart in the source and are kept apart here. Each block holds one molecule with its values, some of them ahead of it.

Tests used:
[1] = test system: RII isoform of PKA compared with the RI isoform; settings: 2006, cited from earlier work; for isoform preference of peptide antagonists: Stokka et al.
[2] = test system: subcutaneous Ramos Burkitt lymphoma tumors; test: Therapeutic efficacy in mice bearing a human Burkitt lymphoma xenograft (Ramos); type: in vivo, NCr athymic nu/nu mice
Procedure: A humanized anti-human CD22 monoclonal antibody, hRFB4, was conjugated with SN-38 as described in U.S. Pat. Nos. 7,999,083 and 8,080,250 (the Examples section of each of which is incorporated herein by reference) at a drug to antibody ratio of 5.71. This antibody drug conjugate (ADC) was tested in mice bearing subcutaneous (s.c.) Ramos Burkitt lymphoma tumors. Efficacy was compared to another anti-CD22 SN-38-ADC, hLL2-SN-38.
To perform this study, 5 week-old female NCr athymic nu/nu mice were injected s.c. with Ramos cells that were harvested from tissue culture (1×10^7 cells per mouse). Once tumors reach approximately 0.2 cm^3 in size, they were divided up into treatment groups. Mice received 250 μg hRFB4-SN-38 i.p. twice weekly for two weeks. Likewise, mice received hLL2-SN-38 or a non-tumor targeting anti-CEACAM5 SN-38-ADC (hMN14-SN-38) at the same dose/schedule as the hRFB4-SN-38. Saline control mice received 100 μL i.p. injections twice weekly for two weeks. Tumors were measured and mice weighed twice weekly. Animals were euthanized for disease progression if their tumor volumes exceeded 1.0 cm^3 in size.

[3] = target: DDD of the RII form of PKA (Homo sapiens, UniProt P13861); settings: Hundsrucker et al., 2006, cited from earlier work
Sequence of DDD of the RII form of PKA (P13861 whole entry): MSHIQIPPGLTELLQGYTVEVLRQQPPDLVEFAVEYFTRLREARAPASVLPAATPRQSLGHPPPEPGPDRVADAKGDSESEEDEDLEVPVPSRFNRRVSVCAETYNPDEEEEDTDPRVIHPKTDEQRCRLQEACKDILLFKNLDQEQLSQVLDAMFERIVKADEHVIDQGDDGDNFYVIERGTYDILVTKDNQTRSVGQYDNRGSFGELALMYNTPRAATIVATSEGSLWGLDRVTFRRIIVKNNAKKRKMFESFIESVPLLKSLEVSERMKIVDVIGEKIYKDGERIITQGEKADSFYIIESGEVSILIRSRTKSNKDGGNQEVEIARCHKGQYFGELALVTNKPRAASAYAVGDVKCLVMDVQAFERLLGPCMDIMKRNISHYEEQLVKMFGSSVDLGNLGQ

[4] = test system: B cells gated from PBMCs of healthy donors; test: Trogocytosis: surface antigen levels on B cells after overnight treatment of PBMCs, flow cytometry; type: cell-based, human
Procedure: Peripheral blood mononuclear cells (PBMCs) obtained from healthy donors were incubated overnight (16-24 h) with 10 μg/mL of either epratuzumab or an isotype control mAb (hMN-14) and the relative levels of various antigens on the surface of the B cells were analyzed by flow cytometry. PBMCs from heparinized whole blood of normal donors were isolated by density gradient centrifugation on UNI-SEP tubes (Novamed Ltd, Israel). PBMCs were reconstituted in RPMI media supplemented with 10% heat inactivated fetal bovine serum and plated at a cell density of 1.5×10^6/mL in non-tissue culture treated 48-well plates. […] Stained cells were analyzed by flow cytometry on a FACSCALIBUR® (BD Biosciences) using Flowjo (V7.6.5) software. Initially, the lymphocyte population was gated by side vs. forward scattering, and B cells were further gated from this population with the CD19 signal. The mean fluorescence intensity (MFI), obtained with fluorochrome-conjugated antibodies to various cell surface antigens, on the gated B cells was calculated following treatment with epratuzumab, hMN-14 or without antibody. PBMCs from 16 healthy donors were assessed in various experiments.

CD22 = target: T1, CD22 (Homo sapiens, UniProt P20273); test: Binding affinity for CD22+ Daudi cells determined by ELISA (FIG. 2)
T1 construct: endogenous in cells; host or cells: Daudi (Burkitt lymphoma) cells
Procedure: FIG. 2. Comparative binding affinity for CD22+ Daudi cells of hLL2 IgG, hRFB4 IgG, chimeric RFB4 conjugated to AD2 peptide, and hMN-14 IgG, as determined by ELISA. The binding affinity of hRFB4 as determined for Daudi cells is about 10-fold higher than that of hLL2 and about 30% higher than the chimeric RFB4.
The hRFB4 antibody was prepared as described above, resulting in a humanized anti-CD22 antibody with variable region sequences as shown in FIG. 1A and FIG. 1B (SEQ ID NO:7 and SEQ ID NO:8). After expression, the binding affinity or CD22+ Daudi cells was compared to that of the hLL2 antibody, comprising the same FR and constant region sequences but different CDR sequences, and to the chimeric RFB4 antibody, comprising the same CDR sequences but different FR and constant region sequences.

Daudi cells = test: Dose-response of trogocytosis of CD22 and CD19 from Daudi cells (FIG. 6A, 6B); type: cell-based, human
[5] = test system: rheumatoid arthritis patients who have failed at least one TNFα inhibitor; type: in vivo, human
Procedure: Patients who have failed therapy with at least one TNFα inhibitor receive 4 doses of 40, 80, 160 or 320 mg hRFB4 injected s.c. every week or every two weeks. The antibody is either administered alone or in conjunction with oral methotrexate (10-25 mg/week).

[6] = test system: patients with primary Sjögren's syndrome; type: in vivo, human
Procedure: Patients with primary Sjögren's syndrome receive 8 doses of 20, 40, 80 or 160 mg hRFB4 injected s.c. every week or every two weeks.

[7] = test system: patients with previously untreated or relapsed hairy cell leukemia; type: in vivo, human
Procedure: Patients with previously untreated or relapsed hairy cell leukemia receive 4 doses of 40, 80, 160 or 320 mg hRFB4 injected s.c. every week or every two weeks.

[8] = test system: patients with SLE who have failed at least one previous therapy; test: Combination therapy of SLE with hRFB4 and hLL2; type: in vivo, human; settings: single antibody alone, same dosage and schedule
Procedure: Patients with SLE who have failed at least one previous therapy receive combination therapy with 160 mg each of hRFB4 and hLL2 (epratuzumab), administered s.c. in 2 injections weekly for four weeks. Control groups receive hRFB4 alone, hLL2 alone or irrelevant antibody (hMN-14) at the same dosage and schedule. […] All serum samples evaluated for anti-human antibodies (HAHA) are negative.

[9] = test system: patients with moderately active SLE; test: Open-label study of hRFB4 in systemic lupus erythematosus; type: in vivo, human
Procedure: An open-label, single-center study of patients with moderately active SLE (total British Isles Lupus Assessment Group (BILAG) score 6 to 12) is conducted. Patients receive dosages of hRFB4 of 50, 100, 200, and 400 mg subcutaneously (SC) every week for 6 weeks. Evaluations include safety, SLE activity (BILAG), blood levels of B and T cells, human anti-RFB4 antibody (HAHA) titers, and levels of cell surface CD19, CD20, CD21, CD22 and CD79b on B cells. It is determined that a dosage of 50-100 mg per SC injection results in optimal depletion of B cell CD19, while producing less than 50% depletion of normal B cells. Subsequently, a subcutaneous dose of 100 mg hRFB4 is administered to a new group of patients with moderately active SLE.

Molecule: DLIEEAASRIVDAVIEQVKAAGAY [Ht-31]
isoform preference of peptide antagonists [1]: greater affinity for the RII isoform of PKA

Molecule: hMN14-SN-38: non-tumor targeting anti-CEACAM5 SN-38-ADC
median survival time (MST) ([2]; 250 μg i.p. twice weekly for two weeks, days post-therapy initiation, death = tumor exceeding 1.0 cm^3): 5 days

Molecule: hLL2-SN-38
survival compared with hMN14-SN-38 control group ([2]; 250 μg i.p. twice weekly for two weeks): no significant difference
mice tumor free when the study ended ([2]; day 87, 250 μg i.p. twice weekly for two weeks): 1 of 6
survival compared with saline control ([2]; log-rank test, P=0.0012): significantly better than saline control

Molecule: PEDAELVRTSKRLVENAVLKAVQQY [AKAP7δ-L304T-pep]
affinity for the RII DDD sequence [3]: particularly high affinities

Molecule: hMN-14: anti-CEACAM5 antibody used as isotype control [reference compound]
effect on levels of the tested surface proteins ([4]; isotype control mAb, 10 μg/mL, overnight): did not affect the levels of any of the tested proteins

Molecule: LEQYANQLADQIIKEATE [RIAD]
isoform preference of peptide antagonists [1]: higher affinity for RI

Molecule: PEDAELVRLSKRDVENAVLKAVQQY [AKAP7δ-L308D-pep]
affinity for the RII DDD sequence [3]: particularly high affinities

Molecule: QIEYLAKQIVDNAIQQA [AKAP-IS]
Kd ([3]; Alto et al., 2003, read-out: binding constant for DDD): 400 pM
affinity for the RII DDD sequence [3]: particularly high affinities

Molecule: FEELAWKIAKMIWSDVFQQC [PV-38]
isoform preference of peptide antagonists [1]: higher affinity for RI

Molecule: PEDAELVRLSKRLVENAVLKAVQQY [AKAP7δ-wt-pep]
affinity for the RII DDD sequence [3]: particularly high affinities

Molecule: QIEYVAKQIVDYAIHQA [SuperAKAP-IS]
selectivity for the RII isoform of PKA compared with the RI isoform ([1]; Gold et al.): five order of magnitude higher selectivity

Kd (CD22; CD22+ Daudi cells, FIG. 2): 200 pM
binding affinity, higher than the chimeric RFB4 (CD22; Daudi cells, versus chimeric RFB4 conjugated to AD2 peptide): about 30%
B1: hRFB4: humanized anti-CD22 antibody with variable region sequences SEQ ID NO:7 and SEQ ID NO:8 (antibody, V domains shown)
VH: QVQLVQSGAEVKKPGSSVKVSCKASGFTFSIYDMSWVRQAPGQGLEWVAYISSGGGTTYYPDTVKGRFTITADESTNTAYMELSSLRSEDTAFYFCARHSGYGSSYGVLFAYWGQGTLVTVSS
VL: DIQLTQSPSSLSASVGDRVTISCRASQDISNYLNWYQQKPGKAPKLLIYYTSILHSGVPSRFSGSGSGTDYTFTISSLQPEDIATYYCQQGNTLPWTFGGGTKVQIKR
trogocytosis (MFI of CD22, CD19, CD21, CD79b on B cells) compared with hLL2 ([4]; overnight treatment of PBMCs, FIG. 4A-4D): more efficacious than the hLL2 antibody; also recorded: as capable of mediating trogocytosis as hLL2
minimal concentration to induce the maximal level of trogocytosis of CD19 (Daudi cells; CD19 from Daudi cell, FIG. 6B): 1 ng/mL
minimal concentration to induce the maximal level of trogocytosis of CD22 (Daudi cells; CD22 from Daudi cell, FIG. 6A): 1 ng/mL
concentration inducing the maximal level of trogocytosis of CD19 and CD22 (Daudi cells; dose-response curve, FIG. 6A and 6B): 1 ng/mL
depletion of B cell surface levels of CD19, CD20, CD21, CD22 and CD79b ([5]; 80 mg): moderate level
depletion of B cell surface levels of CD19, CD20, CD21, CD22 and CD79b ([5]; 160 mg): much higher level
B-cell depletion ([5]; all dosage levels): Transient B-cell depletion
human anti-hRFB4 antibody (HAHA) in serum samples ([5]; in vivo): negative
release pattern of s.c. antibody ([5]; in vivo, sc): slow release pattern over several days
objective responses ([5]; s.c., all dose levels): observed at all dose levels
optimum dosage ([5]; six months after treatment): 160 mg
median corticosteroid after treatment ([6]; 80 mg group, six months after treatment, decrease from 17.5 mg/day): 8.3 mg/day
B-cell depletion ([6]; all dosage levels): Transient B-cell depletion
human anti-hRFB4 antibody (HAHA) in serum samples ([6]; in vivo): negative
objective responses ([6]; s.c., all dose levels): observed at all dose levels
depletion of B cell surface levels of CD19, CD20, CD21, CD22 and CD79b ([7]; 40 mg): moderate level
depletion of B cell surface levels of CD19, CD20, CD21, CD22 and CD79b ([7]; 80 mg): much higher level
B-cell depletion ([7]; all dosage levels): Transient B-cell depletion
objective responses (mostly partial responses) ([7]; dose of 80 mg): 30%
human anti-hRFB4 antibody (HAHA) in serum samples ([7]; in vivo): negative
release pattern of s.c. antibody ([7]; in vivo, sc): slow release pattern over several days
optimum dosage ([7]; six months after treatment): 80 mg
objective responses [8]: Objective responses are observed
patients with BILAG decreases continuing to at least 18 weeks ([9]; 100 mg SC): 92%
decrease of total BILAG scores ([9]; 100 mg SC, all patients): at least 50%
depletion of normal B cells ([9]; 50-100 mg per SC injection, weekly for 6 weeks): less than 50%
immunogenicity ([9]; SLE patients): no evidence of immunogenicity
tolerability ([9]; SLE patients): well tolerated
patients with improvement in at least one BILAG B- or C-level disease activity ([9]; at 6, 10 and 18 weeks): 93%
average decrease of B-cell levels ([9]; at 18 weeks): 35%
patients with multiple BILAG B involvement at baseline who completely resolved all B-level disease activities ([9]; by 18 weeks): 3 patients
